Laboratory results taken from PMC6686729, “RGD conjugated cell uptake off to on responsive NIR-AZA fluorophores: applications toward intraoperative fluorescence guided surgery” (Chemical Science, 2019).

Columns and labels:
[1] = pH titration of fluorescence intensity, sigmoidal plot fit (pKa); assay type: physicochemical
Excerpt: In order to display the responsive nature and full emissive potential of 2 and 3, their DMEM solutions were sequentially acidified (Fig. 4a and b). This caused a successive increase in emission intensity as acidity increased, with a maximum intensity reached at approximately pH 4. […] While it is recognized that the extracellular matrix of a solid tumour can be more acidic than normal tissue, intracellular organelles such as late endosomes and lysosomes are also acidic ranging between pH 4.5 and 5.5.[27] Encouragingly, the measured fluorescence enhancement factor (FEF) for 2 and 3 between pH 7.2 and that of 4.5 (as found in lysosomes) was 23 and 18 respectively (Fig. 4c). […]
Fig. 4 Responsive emission characteristics of 2 and 3 (5 μM) in DMEM/10% FBS solutions containing TX100. (a) Fluorescence spectra of 2 at pH ranging from 8.0 (black) to 2.0 (red); inset sigmoidal plot fit of integrated fluorescence intensity versus pH. (b) Fluorescence spectra of 3 at pH ranging from 8.0 (black) to 2.0 (red); inset sigmoidal plot fit of integrated fluorescence intensity versus pH. […]
Fig. S1. Absorption and fluorescence pH titration of 1
Fig. S1 Absorbance (left) and fluorescence (right) spectra of 1 (5 μM) in PBS buffer/TX-100 (4 mM) starting at pH 8 (grey line) to pH 2 (red line). Fluorescence excitation: 630 nm; range: 650- 900 nm; […]
(§1) Fig. S2. Absorption pH titration and fluorescence spectra of 2 […]

[2] = Photophysical properties (absorption, emission, FEF, quantum yield) in DMEM/10% FBS; assay type: physicochemical
Excerpt: The photophysical properties of the bio-responsive fluorophores 2 and 3 and the always-on control 10 were studied in solutions of Dulbecco's modified eagle's cell medium (DMEM) containing 10% fetal bovine serum (FBS). Absorption and emission wavelengths are listed in Table 1 and are, as would be expected for the NIR-AZA class, in the 690–730 nm range. At pH 7.4 fluorescence intensity of always-on10 was 17- and 15-fold greater than 2 and 3 respectively (Table 1). This illustrates both the emissive potential of the peptide conjugates and the ability to quench the bio-responsive derivatives in relevant biological media (Table 1, spectra and inset). […]
as §1
Fig. S2 Absorbance (left) spectra of 2 (5 μM) in DMEM (10% FBS) /TX100 (4 mM) starting at pH 8 (grey line) to pH 3 (red line). Fluorescence (right) spectra of series dilution (3 µM, 1.8 µM, 1.3 µM, 0.5 µM) in DMEM (10% FBS) /TX100 (4 mM) at pH=3. Fluorescence excitation: 630 nm; range: 650- 900 nm; slit widths: 5/5. Inset: Integrated fluorescence intensity vs. Absorbance; calculated fluorescence quantum yield Φ = 0.16. […]
Fig. S3. Absorption pH titration and fluorescence spectra of 3 […]
Fig. S3 Absorbance (left) spectra of 3 (5 μM) in DMEM (10% FBS) /TX100 (4 mM) starting at pH 8 (grey line) to pH 3 (red line). Fluorescence (right) spectra of series dilution (3.5 µM, 2.6 µM, 1.3 µM, 0.8 µM) in DMEM (10% FBS) /TX100 (4 mM) at pH=3. Fluorescence excitation: 630 nm; range: 650- 900 nm; slit widths: 5/5. Inset: Integrated fluorescence intensity vs. Absorbance; calculated fluorescence quantum yield Φ = 0.18.
Fig. S4. Absorption and fluorescence spectra of 10 at pH 7.4, 6.6, 5.6 and 3.
Fig. S4 Absorbance (left) and fluorescence (right) spectra of 10 (5 μM) in DMEM (10% FBS) /TX100 (4 mM). Fluorescence excitation: 630 nm; range: 650- 900 nm; slit widths: 5/5.

[3] = tested on: MDA-MB 231 cells; test: Live MDA-MB 231 cell NIR-fluorescence/DIC time-lapse imaging; assay type: cell-based, human; details: live MDA-MB 231 cells, 1–5 μM, 37 °C
Method: With the responsive nature of 2 and 3 established, the potential for translation of these constructs to real-time live cell imaging was investigated. In order to illustrate the imaging effect of the bio-responsive characteristics of 2 and 3 the always-on10 was also imaged as a positive control. For live MDA-MB 231 cell experiments, chamber slide seeded cells were placed in a widefield microscope surrounded by an incubator to maintain the temperature at 37 °C and CO2 at 5%, following which an imaging field of view containing viable cells was chosen. The cells were treated with either 2, 3 or 10 (1–5 μM) and time-lapse NIR-fluorescence and differential interference contrast (DIC) images were acquired over 120 min. […] As expected, the […] morphology of the cell line is distinguishable by its membrane filopodia projections which is characteristic of its metastatic invasive phenotype (Movie S1 ^†). After 60 min incubation, both cell membrane and intracellular vesicle staining of the cytoplasm could be observed, both of which persisted at 120 min (Fig. 5b and c). […]
Fluorescence and DIC images were acquired on an Olympus IX73 epi-fluorescent microscope fitted with an Andor iXon Ultra 888 EMCCD and controlled by MetaMorph (v7.8). Fluorescence illumination was provided by a Lumencor Spectra X light engine containing a solid-state light source. […]

[4] = tested on: MDA-MB 231 subcutaneous tumour; test: In vivo tumour fluorescence imaging, tumour-to-background ratio (TBR) over 96 h; parameters: species or system Balb/C nu/nu mice; details: 2 mg kg–1, n = 4 (n = 2 for 10)
Method: Each fluorophore was subjected to in vivo analysis using a standard dosing set at 2 mg kg^–1 delivered by i.v. tail vein injection. Post injection, images were acquired initially at regular intervals between 10 min and 9 h and thereafter less frequently at 24, 48 and 96 h. The method used for image analysis was consistent across all experiments with TBR values calculated by measuring tumour ROI fluorescence against an average of three equally sized background ROI regions, two of which were close to and one distant from the tumour (Fig. S11 ^†). […] As such, we adopted this value as a point of reference to compare result from different fluorophores and different time points for individual fluorophores. […]
All in vivo experiments were conducted in University College Dublin, Ireland in compliance with relevant laws, and their institutional guidelines for animal protocols and the guidelines issued b y the Ethical Committee of University College Dublin and under license from the Health Products Regulatory Authority (HPRA), Dublin, Ireland which approved the experiments.
All in vivo work was carried out in the biomedical facility, University College Dublin (UCD) . MDA-MB-231, a human breast adenocarcinoma cell line, was obtained from Caliper Life Sciences. Cells were maintained as a mono-layer culture in Minimum Essential Medium containing 10% (v/v) fetal bovine serum and supplemented with 1% (v/v) L–glutamine, 50 U/mL penicillin, […] streptomycin, 1% (v/v) sodium pyruvate and 1% (v/v) non-essential amino acids. All cells were maintained in 5% CO2 (v/v) and 21% O2 (v/v) at 37°C.
Balb/C nu/nu mice (Harlan) were housed in individually ventilated cages in temperature and humidity-controlled rooms with a 12 hours light dark cycle. 2-5 Million MDA-MB 231 cells in 100 μL of a DPBS:Matrigel (50:50) solution were injected subcutaneously behind the fore limb of the 5-week-old mice using a 25-g needle. Tumors reached an average diameter of 6 mm prior to imaging […]
images taken at early time points with less frequent imaging thereafter. Images were taken using the settings of excitation 675 nm (30 nm band pass filter) and emission 720 nm (20 nm band pass filter) narrow band pass filters and were analyzed using Living Image Software v4.7.2 (Caliper LS). The tumor-to-background ratio (TBR) was calculated by using the measured fluorescence signal in the ROIs of tumor target and average background. […]
The fluorescence intensity of the animal was measured and normalized to photons per second per centimeter squared per steradian per micro-Watt per centimeter squared [(p/sec/cm2/sr) /(μW/cm2)].
Mice were injected via tail vein (2 mg/kg) as follows; [n = 4 for 1 (3.7 nmol)], [n = 4 for 2 (13.2 nmol)], [n = 4 for 3 (10.5 nmol)], [n = 2 for 10 (10.1 nmol)], anesthetized, and imaged at various time points post injection. All fluorescence images were acquired with two second exposure (f/stop = 2).
Color scale was adjusted and kept same for each experiment to show good contrast of target tumor region to background over time. The fluorescence intensity was not affected by color scale adjusting. […]
For RGD competitive binding study, mice injected with 2 (13.2 nmol) with or without pre-injection with RDG 5 (89.5 nmol) and were imaged at 10 min interval for 3 hours, and then immediately euthanized by inhalation of carbon dioxide. For quantitative comparison, regions of interests (ROIs) […]

Molecule	pKa [1]	absorption or emission spectral changes between pH 7.2 and 4.5 ([2]; 5 μM in DMEM (10% FBS)/TX100 (4 mM))	λ max flu (nm) ([2]; DMEM/10% FBS with 4 mM TX-100, 5 μM)	FEF pH 7.4/4.5 (fluorescence enhancement factor) ([2]; DMEM/10% FBS with 4 mM TX-100, 5 μM, pH 7.4 vs 4.5)	λ max abs (nm) pH 4.5 ([2]; DMEM/10% FBS with 4 mM TX-100, pH 4.5) [nm]	λ max abs (nm) pH 7.2 ([2]; DMEM/10% FBS with 4 mM TX-100, pH 7.2) [nm]	fluorescence intensity of always-on 10 relative to 2 ([2]; pH 7.4, DMEM/10% FBS, 5 μM) [fold]	fluorescence intensity of always-on 10 relative to 3 ([2]; pH 7.4, DMEM/10% FBS, 5 μM) [fold]	cell staining pattern over 120 min ([3]; 5% CO2, time-lapse over 120 min)	cell staining in the first 15 min of incubation ([3]; 5% CO2, widefield NIR-fluorescence and DIC)	TBR ([4]; 10 to 60 min (first 60 min) post i.v. tail vein injection)	TBR ([4]; 3 h post i.v. injection)	TBR ([4]; 6 h post i.v. injection)	TBR ([4]; 24 h post i.v. injection)	TBR ([4]; 48 h post i.v. injection)
N=C(N)NCCC[C@@H]1NC(=O)[C@H](CCCCNC(=O)COCCOCCNC(=O)COCCOCCNC(=O)COc2ccc(-c3cc(-c4ccccc4)c4n3[B-](F)(F)[N+]3=C(c5ccc(O)c([N+](=O)[O-])c5)C=C(c5ccccc5)C3=N4)cc2)NC(=O)[C@@H](Cc2ccccc2)NC(=O)[C@H](CC(=O)O)NC(=O)CNC1=O [compound 2]	4.9	–	–	–	–	–	–	–	–	–	–	–	–	–	–
CC(=O)N[C@@H](CSC1CC(=O)N(CCC(=O)NCCOc2ccc(-c3cc(-c4ccccc4)c4n3[B-](F)(F)[N+]3=C(c5ccc(O)c([N+](=O)[O-])c5)C=C(c5ccccc5)C3=N4)cc2)C1=O)C(=O)NCCCC[C@@H]1NC(=O)[C@H](CC(=O)O)NC(=O)CNC(=O)[C@H](CCCNC(=N)N)NC(=O)[C@@H](NC(C)=O)CSSC[C@@H](C(N)=O)NC(=O)[C@H](CC(=O)O)NC(=O)[C@@H]2CCCN2C(=O)CNC1=O (stereo partly shown) [compound 3]	4.9	–	–	–	–	–	–	–	–	–	–	–	–	–	–
cCRGDKGPDC (disulfide) [compound 10, iRGD conjugated always-on NIR-AZA control with alkylsulfonic acid group, from fluorochrome 9 and peptide 8]	–	no absorption or emission spectral changes	733	1.0	703	705	17	15	first showed plasma membrane before internal organelle staining	fluorescence specific to the plasma membrane	below 1.3	1.5	1.9	above 2	2
